Experimental data: publication PMC6768852, “The structural basis for RNA selectivity by the IMP family of RNA-binding proteins”

Columns and labels:
[1] = target: T1, IMP2 KH34 (NMR) (UniProt Q9Y6M1 425-581); experiment: NMR titration; bound by KH3, fast exchange; EMSA: 100 pM RNA, 10 mM Tris, 100 mM NaCl, 0.1 mM EDTA, 0.01 mg/mL tRNA, 50 ug/mL heparin, 0.01% IGEPAL CA630, room temperature, 3 h; pH not stated; conditions: protein: recombinant; tags: 6xHis
[2] = target: T1, IMP2 KH34 (NMR); experiment: NMR titration; bound by KH4, intermediate exchange; EMSA: 100 pM RNA, 10 mM Tris, 100 mM NaCl, 0.1 mM EDTA, 0.01 mg/mL tRNA, 50 ug/mL heparin, 0.01% IGEPAL CA630, room temperature, 3 h; pH not stated; conditions: protein: recombinant; tags: 6xHis
[3] = target: T2, IMP2 KH34 (UniProt Q9Y6M1 425-581); experiment: EMSA; EMSA: 100 pM RNA, 10 mM Tris, 100 mM NaCl, 0.1 mM EDTA, 0.01 mg/mL tRNA, 50 ug/mL heparin, 0.01% IGEPAL CA630, room temperature, 3 h; pH not stated; conditions: protein: recombinant; tags: MBP
T2 sequence (Q9Y6M1 425-581): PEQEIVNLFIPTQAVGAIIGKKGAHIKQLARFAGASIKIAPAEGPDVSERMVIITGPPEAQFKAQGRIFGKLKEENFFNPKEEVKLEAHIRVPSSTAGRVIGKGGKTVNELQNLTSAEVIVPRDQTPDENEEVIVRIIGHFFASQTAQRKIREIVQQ

[4] = target: T3, ZBP1 KH34 (UniProt Q9NZI8 405-553); experiment: EMSA; text: tight to IMP2 and not to ZBP1; EMSA: 100 pM RNA, 10 mM Tris, 100 mM NaCl, 0.1 mM EDTA, 0.01 mg/mL tRNA, 50 ug/mL heparin, 0.01% IGEPAL CA630, room temperature, 3 h; pH not stated; conditions: protein: recombinant; tags: MBP
T3 sequence (Q9NZI8 405-553): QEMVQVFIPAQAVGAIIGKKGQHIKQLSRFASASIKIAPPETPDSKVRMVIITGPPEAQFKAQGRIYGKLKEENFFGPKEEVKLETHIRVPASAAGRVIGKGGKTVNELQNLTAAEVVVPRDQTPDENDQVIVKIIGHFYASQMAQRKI

[5] = target: T3, ZBP1 KH34; experiment: EMSA; EMSA: 100 pM RNA, 10 mM Tris, 100 mM NaCl, 0.1 mM EDTA, 0.01 mg/mL tRNA, 50 ug/mL heparin, 0.01% IGEPAL CA630, room temperature, 3 h; pH not stated; conditions: protein: recombinant; tags: MBP
[6] = target: T2, IMP2 KH34; experiment: EMSA; tenfold higher affinity than WT zipcode; EMSA: 100 pM RNA, 10 mM Tris, 100 mM NaCl, 0.1 mM EDTA, 0.01 mg/mL tRNA, 50 ug/mL heparin, 0.01% IGEPAL CA630, room temperature, 3 h; pH not stated; conditions: protein: recombinant; tags: MBP

T1 sequence (Q9Y6M1 425-581): as the sequence (Q9Y6M1 425-581) above

B1: CA element RNA (5' RE) (ssRNA)
RNA: CCCUCACC
B1: binds [1].

B2: GG element RNA (3' RE) (ssRNA)
RNA: UUUGGAAC
B2: binds [2].

B3: SELEX RNA #1 WT (ssRNA)
RNA: GGGCAGAGCGACGCAGUUUAGCGGCCUCAGCGAACCCUUUGGAACACUUCUCGAUAGUUGCGUGCGUCCAAA
B3: binds [3]; no binding [4].

B4: C28 beta-actin zipcode WT (ssRNA)
RNA: ACCGGACUGUUACCAACACCCACACCCC
B4 gave a Kd [3] of 161 ± 25 nM and a Kd [5] of 15 ± 4.9 nM.

B5: C28 A22U (ssRNA)
RNA: ACCGGACUGUUACCAACACCCUCACCCC
B5: binds [6].

B6: SELEX RNA #2 (ssRNA)
RNA: GGGCAGAGCGACGCAGUUUAGCCUGUGUAUACAGCGAACCCUUAGGAUGAUCGAUAGUUGCGUGCGUCGAAA
B6: binds [3]; no binding [4].
